Assay: yeast display, Sf9 membrane polyspecificity reagent, FACS + sequencing; frameworks hold sequencing errors
In short: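 A nanobody's polyreactivity label depends on the gate it was sorted from. Yeast display cells were stained with 10% biotinylated, detergent-solubilized Sf9 membrane reagent for 1 hour at 4 °C, enriched on streptavidin microbeads and sorted by FACS. The low and high (top ~1%) gates were set on anti-HA fluorescence for expression and streptavidin fluorescence for reagent binding.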

Sequence | polyreactivity (PSR sort gate)
QVQREESGGGLVQAGGSLRLSCAASGFTFRYYAMGRYRQAPGKERELVAAITWSGGSTYYADSVKGRFTISRDNAKNTVYLQLNSLKPEDTAVYYCNVEAVAWWPEEDYWGQGTQVTVSS | high polyreactivity
QVQREESGGGLVQAGGSLRLSCAASGLTFTTYAMGWYRQAPGKERELVAAISRRGSRTYYADSVKGRFTISRDNAKNTVYLQMNSLKPEDTAVYYCNALTGSFKTYSFDYWGQGSQVTVSS | high polyreactivity
QVQRVDSGGGIVQAGGSLRLSCADSGSIFNRYAMGWYRQAPGKERELFAAISSSSGSTYYADSVKGRFTISRDNSKNTVYLQMNSLKPEDTAVYYCATRRKVVPTQVGYYYRGGVDYWGQGTQVTVSS | high polyreactivity
QVQRVDSGGGLVQAGGSLRLSCAASGSTFPGYAMGWYRQAPGKERELVAAISKRGGSTRYADSVKGRFTISRDNAKNTVYLQMNSLKPEDTAVYYCAASYSYSGSGGGYWGQVTQVTVSS | high polyreactivity
QVQRVESGGDLVQAGGSLRLSCAASGFIYTYYAMGWYRLAPGKERDFVATINWSDGSTRYADSVKGRFTISRDNAKNTVYLQMNSLKPEDTAVYYCAKDWFNRPSGEMDYCGQGTQVTVSS | low polyreactivity
QVQRVESGGGLGQAGGSLRLSCAASGIIFDYYAMGWYRQAPGNERELVAAITTSGGRTYYADSVKGRFTISRDNEKNTVYLQMNRLKPEDTAVYYCAASRPSPRPRDGYWGQGTQVTVSS | high polyreactivity
QVQRVESGGGLVLAGGSLRLSSAASGITFVRYAMGGYRQAPVKERELVAVISRGGITNYADSVMGRFTISRDNAKNTVYLQMNSLKPEDTAVYYCAVRARSYVRTYDYWGQGTQVTVSS | high polyreactivity
QVQRVESGGGLVQAGCSLRLSCAATGSTFRDYTMGGYRQEPGKERELVADITWRSGRTYYADSVMGRFTISRDYAMNTVYLQMNSLKPEDTAVYYCAAATRVKVNGLYSYYYRYDYWGLGTQVTVSS | high polyreactivity
QVQRVESGGGLVQAGGRLLLSCAASGSIFPPNAMGWYREAPGKERELVAAISGSGRTYYADSVKGRFTISRDNAKNTVYLQMNSLKPEDTAVYYCAARQQRRPTTRDFGFWGQGTQVTVSS | high polyreactivity
QVQRVESGGGLVQAGGRLRLSCAASGRIFIYYAMGWYRQAPGKERELVAAISSSGASTYYADSVKGRFTISRDNAKNTVYLQMISLKPEDTAVYYCAALYYRGGAFPLDYWGQGTQVTVSS | low polyreactivity
QVQRVESGGGLVQAGGRLRLSCAASGSTFRQYAMGWYRQAPGKERELVAAITGGGGSTYYADSVKGRFTISRDNAKNTVYLQMNSLKPEDTAVYYCNAVHRYERDYWGQGTQVTVSS | high polyreactivity
QVQRVESGGGLVQAGGSLGLSCAATGSTFTVYAMGWYRQATGTERELVASITFTGGSTYYADSVKGRFTISRDNAKNTVYLQMISLKPEVTEVYYCAAYGWRVHDRWFFERDYWGQGTQVTVSS | high polyreactivity
QVQRVESGGGLVQAGGSLRLSCAAAGLTFYGYAMGWYRQAPGKERELVAAITRSGGSTYYADSVKGRFTISRDNAKNTVYLQMNSLKPEDTAVYYCAAEEEYLYQSNRLHPYDYWGQGTQVTVSS | low polyreactivity
QVQRVESGGGLVQAGGSLRLSCAASGANFSRYAMGWYRPAPGKERELVAAITSGGSTNYADSVKGRFTISRDNAKNTVYLQMTSLKPEDTAVYYCNKRYVVYPGNYWRYDYWGQGTQVTVSS | high polyreactivity
QVQRVESGGGLVQAGGSLRLSCAASGFIFKDNAMGWYRQARGKERELVAVISGTGGRTNSADSVKGRFTISRDNAKNTVYLQMNSLKPEDTAVYYCAAEGYYTSTYDLYDYYYWGQGTQVTVSS | low polyreactivity
QVQRVESGGGLVQAGGSLRLSCAASGFIFRRYAMGWYRQAPGKERELVASISSGGNTNYADSVKGRFTISRDNAKNTVYLQMNSLKPEDTAVYYCNDEYRWIAYGYWGQGTQVTVSS | high polyreactivity
QVQRVESGGGLVQAGGSLRLSCAASGFIFYDYMGWYRQAPGKERVLVAVISYSGSSTYYADSVKGRFTISRDNAKNTVYLQMNSLKPEDNAVYYCAARKVNGWDYDYWGQGTQVTVSS | low polyreactivity
QVQRVESGGGLVQAGGSLRLSCAASGFIFYGNTMGWYREAPGKERELVASITSGSSTHYAYSVKGRFTISRDNAKNTVYLQMNSLKPEDTAVYYCIVDDIQFGKYDYWGQGTQVTVSS | low polyreactivity
QVQRVESGGGLVQAGGSLRLSCAASGIIFDSYAMGWYRQAPGKERELVAAITSDSGRTYYADSVKGRFTISRDNAKNTVYLQMNSLKPEDTAVYYCAKGWDGTYDYWGQGTQVTVSS | low polyreactivity
QVQRVESGGGLVQAGGSLRLSCAASGRIFSNYAMGWYRQAPGKEREFVAAISGSGGSTYYADSVKGRFTISRDNAKNTVYLQMNSLKPEDTAVYYCSTSGPQYYSRNFDYWGQGTQVTVSS | low polyreactivity
QVQRVESGGGLVQAGGSLRLSCAASGRIFSWYTMGWYRQAPGKERELVAVITSGGTTKYADSVKGRFTISRDNAKNTVYLQMNSLKPEDTAVYYCNVAGRDYAVRWGSFDYWGQGTQVTVSS | low polyreactivity
QVQRVESGGGLVQAGGSLRLSCAASGRIFVRNVMGWYRQAPGKEREFVAAITTRGGSTYYADSVKGRFTISRDNAKNTVYLQMNSLKPEDTAVYYCAARYTLRLYWGQGTQVTVSS | high polyreactivity

Sequence | polyreactivity (PSR sort gate)
QVQRVESGGGLVQAGGSLRLSCAASGRIFYPNAMGWYRQAPGTEREWVAGITRGGSTNYADSVKGRFTISRDNAKNTVYLQMNSLKPDDSAVDYCAKAIPAKIYSEAGSDYWGQGTQVTVSS | low polyreactivity
QVQRVESGGGLVQAGGSLRLSCAASGRILGKYAMGRYIQAPGKEREVVAAIRLRGGSTYYADSVKGRFTISRDNAKNTVYLQMNSLKPEDTAVYYCAATYWDRSQAYNYWGQGTQVTVSY | high polyreactivity
QVQRVESGGGLVQAGGSLRLSCAASGRTFAGYAMGWYRQAPGKERELVAAITTGGSTKYADSVKGRLTISRDNAKNTVFLQRTSLKPEDTAVYYCNARKRVYSGNTLMYYWGQGTQVTVSS | high polyreactivity
QVQRVESGGGLVQAGGSLRLSCAASGRTFLQYAMGWYSQAPGKVREFVAAINWSGGSTYYAASVKRRFTISRDNAKNTVYLPMHSLKPEDTAVYYCAARRVYLGEYDYWGQGTQVTVSS | high polyreactivity
QVQRVESGGGLVQAGGSLRLSCAASGRTFRYYAMGWYRQAPGKERELVAAITSGGSTSYADSVKGRFTISRDNAKNTVYLQMNSLKPEDTAVYYCAAVPAGLWATYPQFRYGYWGQGTQVTVSS | high polyreactivity
QVQRVESGGGLVQAGGSLRLSCAASGRTFSKNAMGRTRQAPGQETELVAAISGSGGSTYYADSVKGRFTISRDNAKNTVYLQMNSLKPEDTAVYYCADRYTVRRSGYWGQGTQVTVSS | high polyreactivity
QVQRVESGGGLVQAGGSLRLSCAASGRTFYPYLMGWYRQSPGKERELVARIRWSGSSTYYADSVKGRFTISRDNAKNTVYFQMNSLKPEDTAVYYCNARPSWYVFGSSVHSGMGYWGQGTQVTVSS | high polyreactivity
QVQRVESGGGLVQAGGSLRLSCAASGSIFFDGNAMGWYRQAPGQERELVAAISVSGGSTYYADSVKGRFTISRDNAKNTVYLQMNSLKPEDTAVYYCAKYPSKSYVPGDYWGQGTQVTVSS | low polyreactivity
QVQRVESGGGLVQAGGSLRLSCAASGSIFGPNAMGWYRQAPGKERELVAAITLSGGSTYYADSVKGRFTISRDNAKNTVYLQMNSLKPEDTAVYYCAAEYYQTTYVWWTYDYYWGQGTQVTVSS | low polyreactivity
QVQRVESGGGLVQAGGSLRLSCAASGSIFLSYDMGWYRQAPGKERELVAAITQSGGSTYYADSVKGRFTISRDNAKNTVYLQMNSLKPQDTAVYSCAVRVSGPRGYDYEYWGQGTQVTVSS | low polyreactivity
QVQRVESGGGLVQAGGSLRLSCAASGSIFSSNVMGWYRQAPGKEREIVAAITTGGSTNYADSVKGRFTISRDNAKNTVYLQMYCLKREDTAFYYCSFSYGYYLFVDWGYGCWGQGSQVTVSS | low polyreactivity
QVQRVESGGGLVQAGGSLRLSCAASGSIFYQYAMGWYRQAPGKEREVVAAITIGGSTNYADSVKGRFTISRDNAKNTVYLQMNSLKPEDTAVYYCNADKNWYGHEYDYWGQGTQVTVSS | low polyreactivity
QVQRVESGGGLVQAGGSLRLSCAASGSIIAGYPMGWSRQAPGKERELVAGIRRGGSTNYADSVKGRFTISRDNAKKTVYLQMNSLKPEDTAVYYCNAQRTRSYVLRTFDYWGQGTQVTVSS | high polyreactivity
QVQRVESGGGLVQAGGSLRLSCAASGSIIQPYARGWYRQSPGKERELVAAIRSSTGSTYYADSVKGRFTISRDIAKNTVYLQQNSLKPEDSAVYYCARRRWSYVRGYSSGMYYWGQGTQVTVSS | high polyreactivity
QVQRVESGGGLVQAGGSLRLSCAASGSTFPRNAMGWYRQAPGKEREFVAAISYSGGRTYYADSVKGRFTISRDNAKNTVYLQMNSLKPEDTAVYYCAAQPYSHVRGKSYGYWGQGTQVTVSS | high polyreactivity
QVQRVESGGGLVQAGGSLRLSCAASGSTLYGYALGWYRQAPGKERELVAAISVSGGRTYYADSVKGRFTISRDNAKNTVYLQMNSLKPEDTAVYYCAADGLSPYSGDYWGQGTQVTVSS | high polyreactivity
QVQRVESGGGLVQAGGSLRLSCAGTGSIFTSNAMRWYRQARGNERELVASISYISGGTYYADSVKGRFTISRDNAKNTVYLQMNSLKPEDTAVYYCAAEQTWGSCQYDPRTYDYWGQGNQVTVSS | low polyreactivity
QVQRVESGGGLVQAGGSLRLSSPASGRMGWYRQAPGKERELVAAITSGDRTNYADSVKGRFTISRDNAKNTVYLQMNSLKPEDTAVYYCATERSWYHGFIDPRGYWGQGTQVTVSS | low polyreactivity
QVQRVESGGGLVQAGGSLRLTCAPSGFIFYYYAMGWYRQAPGKEMQLVAAIDSGGSTYADSVNGRFTISRDNAKNTVYLQMTSLKPEDTAVYYCAADYYLPWYPDYDYWGQGTQVTVSS | low polyreactivity
QVQRVESGGGLVQARGSLRLSCAASGRIFTKYAMGWYRQAPGKVRELVAGITSRGGSTYYADSVKGRFTISRDIANNTGYLQMNSLKPEDTAVYYCNAYRVGRYDYWGQGTQVTVSS | high polyreactivity
QVQRVESGRGLFHAGGSLRLSCAASGSIFIWNDMGWYRQAPGKERELVAAITISAGSTSYADSVKGRFTISRDNAKNTVYLQMKSLKPEDTAVYYCAAASWLGAYGYEYDYWGQGTQVTVSS | low polyreactivity

From the nanobody polyreactivity screen of Harvey et al. (2022)
